Details of data set [1]: species or system CF-1 mice. Particulars: mouse, in vivo, iv, 3 mg/kg. The protocol: Female CF-1 mice, […], weighing 20-25 g each, with free access to food and water prior to the experiments, were used for the animal experiments. ^125 I-BBI (3 mg/kg), as native-BBI or as BBIssPal or BBIssOleic conjugate, was administered to the animals via the tail vein. At 0.5, 3, and 24 hr post-injection, 3 animals from each experiment group were sacrificed and their blood (200 μl), the kidneys, the lungs, and the liver were removed, rinsed in ice-cold PBS, and assayed for accumulated radioactivity. The weights of the organs were recorded and used to adjust the concentration of the conjugates in the organs.

For a further data set, the system named is Caco-2 cells. The class given is cell-based, Human. Here is the method: Human colon carcinoma cells (Caco-2) were detached from 25 cm^2 stock culture flasks using a 10 min incubation at 37° C. with 0.5 ml of a trypsin/EDTA solution (0.5% trypsin, 5.3 mM EDTA). The cells were then suspended in 5 ml of Dulbecco's minimum essential medium, supplemented with 15% fetal bovine serum (FBS), L-glutamine (1%), and essential amino acids (1%), and counted using a coulter counter.
Radioiodination of BBI and BBIssPal was carried out using the chloramine-T method [McConahey, P. C. and Dixon, F. J., Meth. Enzymol., 70:221-247 (1980)]. Confluent, 14-day old cell monolayers were washed once with, and then incubated in, serum-free Dulbecco medium at 37° C. for 30 min. Subsequently, the incubation medium was replaced with serum free medium containing ^125 I-BBI (10 μg/ml), either as native-BBI or as BBIssPal or BBIssOleic, and the monolayers were incubated for a further 60 min at 37° C. The monolayers were then washed three times with ice-cold PBS, and then exposed to trypsin (0.5%, EDTA 5.3 mM) for 10 min at 37° C. The detached cells were transferred to tubes, isolated by centrifugation, washed three times using ice-cold PBS, assayed for accumulated radioactivity using a gamma counter, and finally assayed for cell protein using the published method [Lowry, O. H., et al., J. Biol. Chem., 193:265-275 (1951)].
In some experiments the uptake of reduced ^125 I-BBIssPal into cells was determined. ^125 I-BBIssPal was reduced with DTT (50 mM) at 60° C. for 5 min followed by a further 25 min at 37° C. In control experiments, ^125 I-BBIssPal was exposed in medium to the same temperatures without being exposed to DTT.
The uptake of ^125 I-BBIssPal in the presence of BSA (fatty acid free) was determined as follows. ^125 I-BBIssPal was incubated with medium containing 0.1% BSA for 30 min at 37° C. before being added to the cell monolayers. In some uptake experiments, BSA was first mixed with a 3-fold molar excess of palmitic acid, and then incubated with the conjugates prior to the experiments. In the experiments where the uptake of ^125 I-BBIssPal was determined in medium containing FBS, the conjugates was simply added to the medium containing the required amount of FBS.
The cell monolayers were incubated with ^125 I-labeled conjugates at 10 μg/ml for 60 min at 37° C. The results presented are the average of three monolayers ±SEM. The uptake experiments were carried out in Dulbecco medium, in the presence and absence of added FBS.
The cell uptake of ^125 I-BBI, either as the native protein or as BBIssPal was determined before and after reduction with DTT (50 mM) for 5 min at 60° C. and 25 min at 37° C.
The uptake experiments were carried out in Dulbecco medium, in the presence and absence of added fatty acid-free BSA (BSA) or fatty acid-loaded BSA (BSA/FA). The results of studies of the uptake of ^125 I-BBI, either as the native-BBI or in conjugated form to palmitic or oleic acid, in Caco-2 cells in the presence of serum-free medium are presented in FIG. 1. The results are shown as the average ng of BBI internalized ±SEM, n=3. The uptake of ^125 I-BBIssPal into the cells was approximately 100-fold higher than that of ^125 I-BBI. […] The difference between the uptake of ^125 I-BBIssPal and ^125 I-BBIssOleic were significant.

Another data set concerns C3H 10T1/2 cells. Put plainly: Plating efficiency. The data set is classed as cell-based. The protocol: The plating efficiency (PE) of the cells was also studied in conjunction with each of the transformation assays. To determine the PE of the cells in the different treatment groups, cells (200 cells/dish) were seeded into three 60-mm petri dishes per experiment group and treated in the identical manner as the transformation assay cells. The cells in these assays were terminated at 10 days, fixed with 100% methanol, and stained with giemsa; the colonies of 50 cells or more visible under a microscope were then counted. The plating efficiency is defined as the (number of colonies/number of cells seeded)×100%.

B1: BBIssPal: the palmityl disulfide conjugate of BBI (conjugate, UniProt P01055 40-110, looked up)
Bowman-Birk type proteinase …: DDESSKPCCDQCACTKSNPPQCRCSDMRLNSCHSACKSCICALSYPAQCFCVDITDFCYEPCKPSEDDKEN
modifications: palmityl disulfide; 125I
notes: the palmityl disulfide conjugate of BBI
Turning to B1, in data set [1], the “Blood levels and removal from circulation” value is listed as “accumulated in the blood at a relatively high level”; the “Kidney accumulation” value was “BBIssPal was not”; the “Kidney clearance, fold lower than native-BBI” value is reported as “about 4 fold”; the “Liver accumulation, fold higher than BBI” value is reported as “approximately 5 fold”. For the same molecule, in data set [1], the “Lung accumulation/levels, fold higher than BBI” value was “approximately 2 fold” and the “Retention in the liver” value is reported as “remained high in the liver even at 24 hr post-injection”. In the data set on Caco-2 cells, the “Internalization, fold over that of BBI” value is 35 fold; the “Reduction of uptake after reduction with DTT” value is “approximately 80%”; the “Reduction of uptake by defatted-BSA” value is given as 82%; the “Uptake, fold higher than native-BBI” value is 10 fold. Besides, the “Plating Efficiency” value in the data set with C3H 10T1/2 cells was 23 ± 3.0%.

The record behind these values is US6093692A, “Method and compositions for lipidization of hydrophilic molecules” (The University of Southern California, priority 1997, dated 2000).
